We go through 1 molecule from patent publication US8415106B2, “Cell-based screen for agents useful for reducing neuronal demyelination or promoting neuronal remyelination” (Myelin Repair Foundation, Inc., priority 2005, dated 2013).

The subject of assay [1] is oligodendrocytes and myelin in the corpus callosum. In words: Cuprizone remyelination in double transgenic mice on PERK+/+ or PERK+/− background. It is filed as in vivo. Conditions: for remyelinated axons: 9 weeks. The text has this:
The involvement of the ER stress response in the reduction caused by IFN-γ to remyelinate lesions was examined in transgenic mice that were generated to be heterozygous for a loss of function mutation in pancreatic ER kinase (PERK) (Harding, et al., (2001) Mol Cell 7:1153-1163), and to be temporally regulated for expressing INF-γ in the CNS. TRE/IFN-γ mice were first crossed with PERK+/− mice (Harding, et al. (2001) Mol. Cell 7: 1153-1163) on the C57BL/6 background to generate mice the carry the PERK mutation, and the resulting progeny were crossed to GFAP/tTA mice to obtain transgenic mice that were heterozygous for the PERK mutation. The effect of PERK on remyelination in the presence or absence of INF-γ was evaluated as evaluated as a function of the level of myelination of oligodendrocytes in remyelinating lesions and the number of oligodendrocytes present in the remyelinating lesion.
The extent of remyelination was assessed as described in the previous examples in the corpus callosum of PERK+/+ and PERK+/− mice that were made to express INF-γ (DOX−PERK+/+ and DOX− PERK+/−), and in mice in which the expression of INF-γ was repressed (DOX+PERK+/+ and DOX+PERK+/−). Remyelination was determined by electron microscopy, and was related to the number of CC1 positive oligodendrocytes and the level of caspase-3 expression in the corpus callosum of all animals. The level of caspase-3 was determined by immunohistochemical methods using anti capsase antibody (active-casoase-3 antibody, 1:50; Cel Signaling Technology) and according to the method described in Example 1. Demyelination was induced in six-week-old GFAP/tTA; TRE/IFN-γ double transgenic mice on a PERK+/− background that had been maintained on doxycycline, by simultaneously treating the mice with 0.2% cuprizone and releasing them from doxycycline (DOX−PERK+/−). Remyelination was allowed to occur by withdrawing cuprizone at week 6.

Assay [2] has as its system ER stress markers (BIP, CHOP, caspase-12). In words: ER stress markers in the CNS of 14-day-old mice ectopically expressing IFN-γ (released from doxycycline at E14). Type of assay: in vivo. Conditions: PND 14, DOX− from E14. The source says:
To study the effect of INF-γ on the myelination of oligodendrocytes during mouse development, transgenic mice that allow for temporally regulated delivery of IFN-γ to the CNS using the tetracycline (tet) controllable system (Lin, et al. (2004) J. Neurosci. 24: 10074-10083) were generated. To drive tTA expression in astrocytes, the transcriptional regulatory region of the glial fibrillary acidic protein (GFAP) gene was chosen (Brenner, et al. (1994) J. Neurosci. 14: 1030-1037). GFAP/tTA mice were mated with TRE/IFN-γ mice to produce animals hemizygous for both transgenes. When these mice are maintained on doxycycline (DOX+), expression of the IFN-γ transgene is repressed (FIG. 10A); when the double transgenic mice are released from doxycycline (DOX−) INF-γ is expressed. For the purpose of these experiments, mice received doxycycline up to day 14 of development (E14), at which time the experimental animals (DOX−) stopped receiving doxycycline, while the control animals (DOX+) were continuously fed the dug. The mRNA for IFN-γ could be detected in the DOX− mice as early as 10 days after birth (data not shown).
Real time PCR analysis was performed to determine the levels of expression of INF-γ, MHC-1, BIP, CHOP, and caspase 12. The primers for the PCR reactions for BIP, CHP and caspase 12 are given in example 1. The sense and antisense primers for INF-γ were […] (SEQ ID NO: 39) and […] (SEQ ID NO: 40), respectively; and the sense and antisense primers for MHC-1 were MHC-I sense primer: ATTCCCCAAAGGCCCATGT (SEQ ID NO: 1); and MHC-I antisense primer: […] (SEQ ID NO: 2).
Western blot analysis was performed on the CNS of 14 day old mice to determine the expression of caspase-12 as described in Example 6.

In assay [3] the test system is myelin basic protein (MBP). In words: Hippocampal organotypic cultures (HOC), in vitro model of myelination, MBP Western blot. It is filed as cell-based. Conditions: 100 U/ml IFN-γ, 7 days, HOCs. The protocol: HOCs, were prepared and maintained as described previously (Kunkler and Kraig (1997) J Cereb Blood Flow Metab. 17:26-43), and were maintained in vitro for 7 days before use. SAL at various concentrations was combined with 100 U/ml IFN-γ and added to the HOC cultures for 7 days. […] After 7 days of 100 U/ml IFN-γ exposure, the levels of MBP decreased approximately 80% in the HOCs (FIG. 29).
Background: In western blotting, separated proteins are transferred to a membrane and probed.

Assay [4] has as its system ER stress markers (BIP, CHOP, p-eIF-2α). In words: ER stress markers in the corpus callosum during remyelination (real time PCR, Western blot). Type of assay: in vivo, mice. How it is done: Repression of remyelination by IFN-γ is associated with ER stress. […] To determine whether IFN-γ interferes with endoplasmic reticulum (ER) function in remyelinating oligodendrocytes, the expression of ER stress markers was monitored in the corpus callosum of mice expressing IFN-γ. The study was performed using the transgenic mice described in Example 1.
The level of mRNA encoding ER stress associated genes binding immunoglobulin protein/78 KDa glucose regulated protein (BIP/GRP78) and the CAATT enhancer-binding protein homologous protein/growth and DNA damage protein 153 (CHOP/GADD153), was determined using real time PCR, as described in Example 1 in the corpus callosum of the cuprizone treated mice of Example 1. The probes, sense and antisense primers that were used were: […]
The level of phosphorylated eIF-2α, which inhibits nucleotide exchange on the eIF-2 complex and attenuates most protein synthesis, was analyzed by Western blot, and the expression was colocalized by immunostaining CC1 antibodies as described above. Western blot analysis was performed as follows. The corpus callosum from 3 mice was rinsed in ice cold phosphate-buffered saline (PBS) and pooled, and immediately homogenized in 5 volumes of Triton X-100 buffer (20 mM HEPES pH 7.5, 150 mM NaCl, 1% Triton X-100, 10% glycerol, 1 mM EDTA, 10 mM tetrasodium pyrophosphate, 100 mM NaF, 17.5 mM β-glycerophosphate, 10 mM phenylmethylsulfonyl fluoride, 15 μg/ml aprotonin, and 6 μg/ml pepstatin A) using a motorized homogenizer. After incubation on ice for 15 min, the extracts were cleared by centrifugation at 14,000 rpm twice for 30 min each. The protein content of each extract was determined by protein assay (Bio-Rad). The extracts (40 μg) were separated by sodium dodecyl sulfate-polyacrylamide gel electrophoresis and transferred to nitrocellulose. […] The following primary antibodies were used: anti-eIF-2α (1:500; Santa Cruz, Santa Cruz, Calif.), anti-p-eIF-2α (1:1000, Cell signaling Technology), anti-CHOP (1:500; Santa Cruz) and anti-actin (1:1000; Sigma, St Louis, Mo.).
A general note: Real-time PCR tracks product formation cycle by cycle.

Setting [5] is: DOX− compared to control DOX+ mice.

B1: IFN-γ: pleotropic cytokine secreted by activated T lymphocytes and natural killer cells; recombinant rat IFN-γ added to cultures or transgenically expressed in mouse CNS (protein, UniProt P01581 23-156, looked up)
Interferon gamma: QGTLIESLESLKNYFNSSSMDAMEGKSLLLDIWRNWQKDGNTKILESQIISFYLRLFEVLKDNQAISNNISVIESHLITNFFSNSKAKKDAFMSIAKFEVNNPQIQHKAVNELIRVIHQLSPESSLRKRKRSRC
Regarding B1, in assay [1] (DOX−PERK+/+ mice, DOX+ 54.0%±4.3%), the remyelinated axons is given as 31.1%±7.6%. Also, in assay [1] (DOX−PERK+/+ mice, week 9, DOX+PERK+/+ 283.2±27.7), the “number of CC1 positive oligodendrocytes” value was 123.2±27.5 /0.04 mm^2. In addition, the remyelinated axons in assay [1] (DOX−PERK+/− mice, 3 weeks after cuprizone removal) is on record as 15.6%±7.6%. Further, the “number of oligodendrocytes positive for caspase-3, DOX−PERK+/− versus DOX−PERK+/+” value in assay [1] (corpus callosum, week 9) was found to be 2.3 times. Also, in assay [2], the BIP expression entry was “approximately 1.6 times the control levels”, the CHOP expression is ~2 times the control levels and the caspase-12 expression entry is “strongly enhanced”. Further, the “decrease of MBP levels” value in assay [3] is reported as “approximately 80%”. In assay [4] (setting [5]), the “level of mRNA for BIP” value is “approximately 2 fold” and the “level of mRNA for CHOP” value is recorded as “approximately 2 fold”. Further, in assay [4] (DOX− double transgenic mice), the “level of phosphorylated eIF-2α (Western blot)” value was “approximately 1.8 fold” and the “level of the CHOP protein (Western blot)” value was “approximately 1.7 fold”.
